How the values were obtained:
[1] = tested on: T1, control peptide (adjacent overlapping PKAc peptide)
T1 sequence: GFAKRVKGRTWTL

[2] = tested on: full-length, active PKAc (purified)
[3] = tested on: T2, ZaTa peptide (PKAc fragment flanking Thr-197)
T2 sequence: AKRVKGRTWTLCGTPEY

[4] = target: active AKT1 (purified, Upstate Biotechnology) (UniProt P31749)
[5] = target: active AKT1 mutant with a Ser473Asp mutation (UniProt P31749)
[6] = target: active AKT1 mutant with a deletion in the PH domain (UniProt P31749)
Sequence of active AKT1 mutant with a deletion in the PH domain (P31749 whole entry, looked up, stated change not applied, the tested form may be a part): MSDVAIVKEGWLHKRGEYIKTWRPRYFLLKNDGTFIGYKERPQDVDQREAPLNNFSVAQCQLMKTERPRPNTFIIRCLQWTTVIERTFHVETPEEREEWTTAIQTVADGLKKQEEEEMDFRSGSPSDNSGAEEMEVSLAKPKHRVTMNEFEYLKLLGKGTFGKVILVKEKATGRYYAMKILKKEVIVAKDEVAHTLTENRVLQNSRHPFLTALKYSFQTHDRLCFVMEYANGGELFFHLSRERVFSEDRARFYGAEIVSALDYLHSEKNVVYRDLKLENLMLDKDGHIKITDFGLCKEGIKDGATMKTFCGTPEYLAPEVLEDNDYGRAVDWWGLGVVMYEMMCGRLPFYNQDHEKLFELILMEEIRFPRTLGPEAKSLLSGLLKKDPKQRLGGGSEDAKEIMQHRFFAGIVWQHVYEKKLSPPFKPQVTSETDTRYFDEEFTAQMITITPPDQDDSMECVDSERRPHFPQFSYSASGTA

Sequence of active AKT1 (purified, Upstate Biotechnology) (P31749 whole entry, looked up): as the sequence (P31749 whole entry, looked up, stated change not applied, the tested form may be a part) above
Sequence of active AKT1 mutant with a Ser473Asp mutation (P31749 whole entry S473D, the tested form may be a part): as the sequence (P31749 whole entry, looked up, stated change not applied, the tested form may be a part) above, with S473D counted along it

Question: “active AKT1 (purified, Upstate Biotechnology)” was tested. Which “AKT1 in vitro catalytic activity (32P incorporation into Ser-21 GSK-3 substrate peptide)” value [1] did it give?
Answer: the adjacent overlapping peptide was not able to inhibit AKT1

Question: What about the “PKA kinase activity in vitro (phosphorylation of DARPP-32 at Thr-34)” value [2] of the same substance?
Answer: addition of the active AKT to the PKA kinase assay increased the catalytic activity of PKAc

Question: And the “phosphorylation level of PKAc at Thr-197 in vitro” value [2]?
Answer: the increase in the PKAc catalytic activity was accompanied by an increase in the phosphorylation level of PKAc at Thr-197

Question: And the “IC-50 of AKT1 catalytic activity (32P incorporation, CPM)” value [3]?
Answer: IC-50 of the ZaTa peptide was within a nanomolar range in these assays

Question: And the “IC-50 of AKT1 in vitro catalytic activity (32P incorporation into Ser-21 GSK-3 substrate peptide)” value [3]?
Answer: IC-50 ˜0.1 µM

Question: And the “phosphorylation of Ser-9 GSK-3 GST substrate in the AKT1 kinase assay (western blot)” value [3]?
Answer: The phosphorylation level of Ser-9 GSK-3 GST substrate was significantly reduced after adding the ZaTa peptide to the AKT1 kinase assay

Question: What about the “phosphorylation of ZaTa by AKT (control kinase reactions with peptide and AKT only)” value [3] of the same substance?
Answer: ZaTa peptide itself was not a substrate for AKT

Question: Which “AKT kinase activity in vitro (Ser-9 GSK-3 GST fusion protein as substrate)” value [4] does the source give for full-length, active PKAc (purified) here?
Answer: the kinetic activity of AKT was dramatically reduced

Question: And the “AKT kinase activity in vitro” value [5]?
Answer: The decrease in the catalytic activity of AKT by PKAc was also observed with two mutants and active forms of AKT1 ... the other one with a Ser473Asp mutation

Question: What about the “AKT kinase activity in vitro” value [6] of the same substance?
Answer: The decrease in the catalytic activity of AKT by PKAc was also observed with two mutants and active forms of AKT1, one with a deletion in the PH domain

Question: For active PKAc purified from bovine tissue, which “AKT kinase activity in vitro” value [4] is on record?
Answer: the same inhibitory effect was observed with active PKAc purified from bovine tissue

Question: How did the “AKT kinase activity in vitro” value [4] turn out when human PKAc expressed in Sf9 cells was run?
Answer: the same inhibitory effect was observed ... with human PKAc expressed in Sf9 cells
